Patent publication US11155602B2, “Polypeptides targeting HIV fusion” (priority 2015, dated 2021)

System: NL-Rluc virus
Experiment: Combinectin potency assay: antiviral EC50, NL-Rluc virus in MT-2 cells, luciferase readout
Type: cell-based, HIV-1
Conditions: Anti-N17 Adnectin - HIV fusion peptide inhibitor Combinectin, Table 4
How it was run: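 Peptides, serially diluted threefold over 11 points in triplicate, were exposed for 4–5 days to MT-2 cells preinfected 1 h with NL-Rluc virus (MOI 0.01). Replication read out as Renilla luciferase signal, with EC50 derived against untreated infected controls.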

| Molecule | EC50 [nM] |
| --- | --- |
| 411 (protein, Anti-N17 Adnectin - HIV fusion peptide inhibitor Combinectin) MGHHHHHHGGSVSDVPRDLEVVAATPTSLLISWEYKVNAYRYYRITYGETGGNSPVQEFTVPSVLSTATISGLKPGVDYTITVYAVTYGVDSDPISINYRTEIDGGGGSGGGGSGGGGSGGGGTIAEYAARIEALIRAAQEQQEKNEAALRELYKWAS | 4340 |
| 425 (protein, Anti-N17 Adnectin - HIV fusion peptide inhibitor Combinectin) MGHHHHHHGGSVSDVPRDLEVVAATPTSLLISWEYKVNAYRYYRITYGETGGNSPVQEFTVPSVLSTATISGLKPGVDYTITVYAVTYGVDSDPISINYRTEIDGGGGSGGGGSGGGGSGGGGTIAEYAARIEALIRAAQEQQEKNEAALRELYKWAS | 523 |
| 415 (protein, Anti-N17 Adnectin - HIV fusion peptide inhibitor Combinectin) MGHHHHHHGVSDVPRDLEVVAATPTSLLISWDAPAVTVRYYRITYGETGGNSPVQEFTVPGSKSTATISGLKPGVDYTITVYAVTGRGESPASSKPISINYRTEIDGGGGSGGGGSGGGGSGGGGSRIEALIRAAQEQQEKNEAALRELFKWAS | > 1000 |
| 423 (protein, Anti-N17 Adnectin - HIV fusion peptide inhibitor Combinectin) MGHHHHHHGVSDVPRDLEVVAATPTSLLISWDAPAVTVRYYRITYGETGGNSPVQEFTVPGSKSTATISGLKPGVDYTITVYAVTGRGESPASSKPISINYRTEIDGGGGSGGGGSGGGGSGGGGSRIEALIRAAQEQQEKNEAALRELYKWTS | 122 |
| 417 (protein, Anti-N17 Adnectin - HIV fusion peptide inhibitor Combinectin) MGHHHHHHGVSDVPRDLEVVAATPTSLLISWDAPAVTVRYYRITYGETGGNSPVQEFTVPGSKSTATISGLKPGVDYTITVYAVTGRGESPASSKPISINYRTEIDGGGGSGGGGSGGGGSGGGGSRIEALIRAAQEQQEKNEAALRELYKWAS | 428 |
| 419 (protein, Anti-N17 Adnectin - HIV fusion peptide inhibitor Combinectin) MGHHHHHHGVSDVPRDLEVVAATPTSLLISWDAPAVTVRYYRITYGETGGNSPVQEFTVPGSKSTATISGLKPGVDYTITVYAVTGRGESPASSKPISINYRTEIDGGGGSGGGGSGGGGSGGGGSRIEALIRAAQEQQEKNEAALRELQKWAS | > 1000 |
| 416 (protein, Anti-N17 Adnectin - HIV fusion peptide inhibitor Combinectin) MGHHHHHHGVSDVPRDLEVVAATPTSLLISWDAPAVTVRYYRITYGETGGNSPVQEFTVPGSKSTATISGLKPGVDYTITVYAVTGRGESPASSKPISINYRTEIDGGGGSGGGGSGGGGSGGGGSRIEALIRAAQEQQQKNEAALRELDKWAS | > 1000 |
| 418 (protein, Anti-N17 Adnectin - HIV fusion peptide inhibitor Combinectin) MGHHHHHHGVSDVPRDLEVVAATPTSLLISWDAPAVTVRYYRITYGETGGNSPVQEFTVPGSKSTATISGLKPGVDYTITVYAVTGRGESPASSKPISINYRTEIDGGGGSGGGGSGGGGSGGGGSRIEALIRAAQEQQEKNEAALRELLKWAS | 218 |
| 422 (protein, Anti-N17 Adnectin - HIV fusion peptide inhibitor Combinectin) MGHHHHHHGVSDVPRDLEVVAATPTSLLISWKYKVHPYRYYRITYGETGGNSPVQEFTVPSVLSTATISGLKPGVDYTITVYAVTYGVNSLPISINYRTEIDGGGGSGGGGSGGGGSGGGGTEYEARIEALIRAAQEQQEKNEAALRELDK | 3 |
| 424 (protein, Anti-N17 Adnectin - HIV fusion peptide inhibitor Combinectin) MGHHHHHHGGSVSDVPRDLEVVAATPTSLLISWEYKVNAYRYYRITYGETGGNSPVQEFTVPSVLSTATISGLKPGVDYTITVYAVTYGVDSDPISINYRTEIDGGGGSGGGGSGGGGSGGGGARIEEYAARIEALIRAAQEQQEKNEAALRELYKWAS | 39 |
| 412 (protein, Anti-N17 Adnectin - HIV fusion peptide inhibitor Combinectin) MGHHHHHHGGSVSDVPRDLEVVAATPTSLLISWEYKVNAYRYYRITYGETGGNSPVQEFTVPSVLSTATISGLKPGVDYTITVYAVTYGVDSDPISINYRTEIDGGGGSGGGGSGGGGSGGGGSEYEARIEALIRAAQEQQEKNEAALRELYKWAS | 2980 |
| 426 (protein, Anti-N17 Adnectin - HIV fusion peptide inhibitor Combinectin) MGHHHHHHGGSVSDVPRDLEVVAATPTSLLISWEYKVNAYRYYRITYGETGGNSPVQEFTVPSVLSTATISGLKPGVDYTITVYAVTYGVDSDPISINYRTEIDGGGGSGGGGSGGGGSGGGGSEYEARIEALIRAAQEQQEKNEAALRELYKWAS | 139 |
| 420 (protein, Anti-N17 Adnectin - HIV fusion peptide inhibitor Combinectin) MGHHHHHHGGSVSDVPRDLEVVAATPTSLLISWEYKVHPYRYYRITYGETGGNSPVQEFTVPSVLSTATISGLKPGVDYTITVYAVTYGDDSAPISINYRTEIDGGGGSGGGGSGGGGSGGGGSRIEALIRAAQEQQEKNEAALRELDKWAS | 8 |
| 428 (protein, Anti-N17 Adnectin - HIV fusion peptide inhibitor Combinectin) MGHHHHHHTSGVSDVPRDLEVVAATPTSLLISWDAPAVTVGWYHIGYNVEGEPASYQYFRVPGSKSTATISGLKPGVEYMIFVNAVTGSGAREEFSLPISINYRTEIDGGGGSGGGGSGGGGSGGGGSEYEARIEALIRAAQEQQEKNEAALRELDKWTGVWGNYEKV | 50 |
| 414 (protein, Anti-N17 Adnectin - HIV fusion peptide inhibitor Combinectin) MGHHHHHHTSGVSDVPRDLEVVAATPTSLLISWDAPAVTVGWYHIGYNVEGEPASYQYFRVPGSKSTATISGLKPGVEYMIFVNAVTGSGAREEFSLPISINYRTEIDGGGGSGGGGSGGGGSGGGGSEYEARIEALIRAAQEQQEKNEAALRELDKWTGVWGNYEKV | 4 |
| 421 (protein, Anti-N17 Adnectin - HIV fusion peptide inhibitor Combinectin) MGHHHHHHGVSDVPRDLEVVAATPTSLLISWVAGAEDYQYYRITYGETGGNSPVQEFTVPHDLVTATISGLKPGVDYTITVYAVTDMMHVEYTEHPISINYRTEIDGGGGSGGGGSGGGGSGGAIAEYAARIEALIRAAQEQQEKNEAALRELDKWAS | 50 |
| 413 (protein, Anti-N17 Adnectin - HIV fusion peptide inhibitor Combinectin) MGHHHHHHGVSDVPRDLEVVAATPTSLLISWKYKVHPYRYYRITYGETGGNSPVQEFTVPSVLSTATISGLKPGVDYTITVYAVTYGVNSLPISINYRTEIDGGGGSGGGGSGGGGSGGGGTEYEARIEALIRAAQEQQEKNEAALRELKEWASIWN | 6 |
| 427 (protein, Anti-N17 Adnectin - HIV fusion peptide inhibitor Combinectin) MGHHHHHHGVSDVPRDLEVVAATPTSLLISWKYKVHPYRYYRITYGETGGNSPVQEFTVPSVLSTATISGLKPGVDYTITVYAVTYGVNSLPISINYRTEIDGGGGSGGGGSGGGGSGGGGTEYEARIEALIRAAQEQQEKNEAALRELKEWASIWN | 143 |

Same assay, conditions: Anti-N17 Adnectin, Table 3

| Molecule | EC50 [nM] |
| --- | --- |
| 360 (protein, Adnectin) MGHHHHHHGGSVSDVPRDLEVVAATPTSLLISWEYKVTGYRYYRITYGETGGNSPVQEFTVPSVLSTATISGLKPGVDYTITVYAVTYGDDSAPISINYRTEID | > 1000 |
| 362 (protein, Adnectin) MGHHHHHHGGSVSDVPRDLEVVAATPTSLLISWEYKVHPYRYYRITYGETGGNSPVQEFTVPSVLSTAKLSGLKPGVDYTITVYAVTYGDDSAPISINYRTEID | 121 |
| 361 (protein, Adnectin) MGHHHHHHGGSVSDVPRDLEVVAATPTSLLISWEYKVYHGRYYRITYGETGGNSPVQEFTVPSVLSTATISGLKPGVDYTITVYAVTYGDDSAPISINYRTEID | > 1000 |
| 363 (protein, Adnectin) MGHHHHHHGGSVSDVPRDLEVVAATPTSLLISWEYKVHPYRYYRITYGETGGNSPVQEFTVPSVLSTATISGLKPGVDYTITVYAVTYGNDSAPISINYRTEID | 130 |
| 138 (protein, Adnectin) MGVSDVPRDLEVVAATPTSLLISWHYPFEGYVTYYRITYGETGGNSHVQEFTVPVGYTTATISGLKPGVDYTITVYAVTSSKGYVYFPISINYRTEIDKPSQHHHHHH | 3300 |
